Assay: soluble on expression in E. coli; label from the status in PepcDB or PDB records
For “MIKTAQSVGELTRAIKNELESLFPFVRVKGELSNVKQHSSGHVYLTLKDSEAQIPAVIWKSVRARSPLELRDGLEVIAEGRLEVWPPAGRYQLICTALFETGEGEQRLALERLIAKLAKAGWFDAERKKPIPRIPRRIGMITSPTGAVIRDMSDVFARRFPAAELLLYPVQVQGERAVESIVRALRYFNDPPKPEHKPDVLIVARGGGSSEDLQAFNDEAVAEAIYRSAIPVISAVGHETDLSVADMVADLRAGTPSIAAERAVPDREELLRLIDNLVNRQSILMEGLISGAQLQVDSITSSYAFNRPVQMLGQFEERLALMEKEMKRAIAEKVRDREQQLTAAADRLAMLDINRTLKRGFALVTQDDRYVTSAKSLEADAKIGLTFHDGQREARVTE”, the “soluble on expression in E. coli” value was “not soluble”. In the case of “MELQQLPQHVRDAFHAPNTPPRQLGVAWDYGWRVGNVAFSQVIHPDRSAWSARVRDKLQPQGLRVVRPLKSTDGRYINAGWRANSFEEGTLARRVDETVVAALRLDTALADIDVPDSFSEPDSHDLFSLADHSAWAPEPMVALGVTSDAEAVFLNPAQLTAQRLLPKIVLLLRDIDAPIQVTHADMFATTIYSGNQMPVVTDLVGVARPYGYTAAVCIVDALLAGAVDEGIIDRFSHIQHRDQLLLRALVYRIAVHALHPESTSNTGTNLEWVSQTIMSRASVTL”, the “soluble on expression in E. coli” value was “soluble”. With “PNFSEGSSSTESTVRVKHKIEKTTQKLSETVRPRDMFIHDDGAHYKVDDNALYEEIWSDLPHWDVKGIKDISDQYDKAGFKSWFYGIGGSEAKLDLQFSDTIPIDIFQTLFKWSNQSFEYSSFDHILIPFNETKANKKIYLVSYSKQLILEVTVESANYRNIMNDLKNRQSNMPAFSLFSIGSKKEFLLPNKPLTMDKKEFVTESIKTNTFKQALFSDPSIVREDSNYNNRNVLTDGISRLDVNLSQRQVQFQQRNLVQSTSYQTGELIKKSQKYLEDTGSWTDHYQFFNINDSQQLSFYIFMDQIPVINSTAKPFGATSAITVQWANDDILSYKRPNYSLGTNPIKTSETELMGGSEVKMLLSKQTAYDTDKIDQIFLAYQLVSTSTNDDPLVELEPVWAMKVNGKIVPITKDLLRKEGANSGVE” the “soluble on expression in E. coli” value was “soluble”. With “MGSDKIHHHHHHMTPSEYQNPILCADYSDPDIVRVGDDFFMVSSSFNHVPALPILHSTDLVNWTIINHVMDELPLPGYDRYQPGKGVWAPSIRWHDGKLWVCFSTPDEGIFICHTEDPWGKWSAPHCLREARGWIDPCPFWDDNGQAWLVHAFAHSRSGIKHKLQLFAMAPDASELLGEGQIIYDGCCDLPTLEGPKVYQRAGWYYIFAPAGGVENGWQTVLRARQMTGPWEAKNVLFQGNTSINGPHQGGWVEGEEGECWFVHFQDLHLYGRVVHLQPMSWGNDGWPRIGEQIGNCGVGQPVLRWPRPKGLTPSPALAPQTSDYFAQGQPGIQWQWQANPSPEWLLPAEGELRLRCVPLSEVDGQRALYWAPQLLLQKFPALTFSAKTSVTLYAAQDGDAGGLIVYGERYAALLVEFGQGGYRLVWRHGWMSDAGVVRETRQVLAELKCGKCQLQVAVGEGGLCQFSWRAEEEWRKVPLCFAAGKGKWVGAKFGLLAASMVGLQSEGYSALQDFEVIL” the “soluble on expression in E. coli” value was “not soluble”. In the case of “MSLDAIEAEREVLIGFLQEFVRAASPNPPGDTRAAAAVIQGFLSARGVPNELLGPQESMPNVVSECEGGRAGPRLVYNGHMDVFPVGDGHGWTRDPWSGDIEEGRLHGRGTCDMKTGTAASVIAYAYLYARRAQLAGSVALTAVSDEETGGRWGTRWLLENDTRWRGDCVLNGEPSSLDTIRFSEKGTLRLKFEVLAAGAHGAYVHRSESPTRIAAALIGRLAEVEAIEPSLPAALKAHLQREDVRRALDVAMGEGAADVVTRTTLNVGVLNGGLKINMIPDRCVFEVDIRLPVGTEPDVVLARLEGILAEFPQASMEVQQWHSTPPNVCAHDHPMVDFIADNAQAIVGRRPVAVPSIGSTDCRYWRRSGVPAYVYGPAPGRMAMSNESVDLDEFIAVAKVHAAAGWDYLNGAAEGHHHHHH”, the “soluble on expression in E. coli” value was “not soluble”. In the case of “MSHRNDSSRKHRKSRSIKNDQHYPTVSFDGAESVDIPADEGKSPVSTHLSLASNPTEFKFMDEIALLKRGRIDKDAPKHPYNRRGQQPMMKKEISVTSAHSNSSLPVRSPAIMTLMGGVPEAEKEYNVGKGGLLKISKMKEGGKRYEVSANERFTVFQQTAGQTCLFTFKA”, the “soluble on expression in E. coli” value was “not soluble”. In the case of “MQFEKMITEGSNTASAEIDRVSTLEMCRIINDEDKTVPLAVERVLPDIAAAIDVIHAQVSGGGRLIYLGAGTSGRLGILDASECPPTYGVKPGLVVGLIAGGEYAIQHAVEGAEDSREGGVNDLKNINLTAQDVVVGIAASGRTPYVIAGLEYARQLGCRTVGISCNPGSAVSTTAEFAITPIVGAEVVTGSSRMKAGTAQKLVLNMLSTGLMIKSGKVFGNLMVDVVATNEKLHVRQVNIVKNATGCSAEQAEAALIACERNCKTAIVMVLKNLDAAEAKKRLDQHGGFIRQVLDKELEHHHHHH”, the “soluble on expression in E. coli” value was “soluble”.

From the DeepSol protein solubility set
